Reference: patent publication US20260274955A1 (JANUX THERAPEUTICS, published 2026)

Key:
[1] = biological target: Anti-CD28 Fab (SEQ ID NOs: 202, 203); assay: phage binding ELISA on captured Fab;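 also: clonal phage supernatants added briefly to wells pre-incubated with CD28 antigen or with blocking buffer only, then washed, bound phage read by ELISA using HRP-coupled anti-M13 antibody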
Protocol: (§1) Clonal phage were harvested as crude supernatants and screened via standard ELISAs. […] Prior to the addition of clonal phage, wells were incubated with blocking buffer and CD28 antigen or blocking buffer alone. Without washing or aspirating, clonal phage supernatants were then added to the wells and incubated for a short time. Wells were then washed followed by detection of bound phage using a horse radish conjugated anti-M13 antibody.

[2] = biological target: Anti-CD28 Fab (SEQ ID NOs: 202, 203); assay: phage binding ELISA on captured Fab, competitor CD28 antigen;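 also: clonal phage supernatant binding in wells preincubated with CD28 antigen in blocking buffer, detected by HRP-conjugated anti-M13 antibody ELISA, compared with blocking buffer alone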
Protocol: as §1

Chain of Anti-CD28 Fab (SEQ ID NOs: 202, 203) (VH, as listed by the source, chain 1 of 2): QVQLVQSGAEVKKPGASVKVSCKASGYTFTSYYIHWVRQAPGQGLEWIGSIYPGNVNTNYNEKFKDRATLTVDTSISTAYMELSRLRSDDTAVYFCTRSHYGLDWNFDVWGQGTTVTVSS
Chain of Anti-CD28 Fab (SEQ ID NOs: 202, 203) (VL, as listed by the source, chain 2 of 2): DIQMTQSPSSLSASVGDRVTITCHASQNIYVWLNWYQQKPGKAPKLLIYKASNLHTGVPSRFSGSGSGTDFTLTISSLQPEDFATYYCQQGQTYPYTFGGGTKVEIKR

Binder | Anti-CD28 Fab (SEQ ID NOs: 202, 203) signal [1] | Anti-CD28 Fab signal in the presence of CD28 [2]
YCEGHVPEYLVKCL [Phage-778] | 0.96 | 0.06
YCAGHTPEYLDKCL [Phage-784] | 0.95 | 0.06
YCAGHAAEYMWKCL [Phage-776] | 0.97 | 0.06
YCDGHSFEYMAKCL [Phage-794] | 0.92 | 0.06
YCDGHSMEYMAKCL [Phage-821] | 0.8 | 0.07
YCSGHVPEYMEKCL [Phage-787] | 0.94 | 0.06
YCDGHSAEYLGKCL [Phage-795] | 0.92 | 0.07
YCDGHLPEYMLKCL [Phage-780] | 0.96 | 0.09
YCDGHLPEYMEKCL [Phage-880] | 0.43 | 0.07
YCEGHAHEYMEKCV [Phage-790] | 0.93 | 0.07
YCDGHSKEYMSKCL [Phage-779] | 0.96 | 0.07
YCDGHSGEYMSKCL [Phage-819] | 0.82 | 0.06
YCDGHIKEYMSKCL [Phage-799] | 0.91 | 0.08
YCAGHLEMYMSKCL [Phage-798] | 0.91 | 0.07
YCDGHTGMYISKCL [Phage-774] | 0.98 | 0.06
YCAGHSLQYLGKCY [Phage-813] | 0.86 | 0.06
YCEGHSAIYIAKCM [Phage-772] | 0.98 | 0.11

Binder | Anti-CD28 Fab (SEQ ID NOs: 202, 203) signal [1] | Anti-CD28 Fab signal in the presence of CD28 [2]
YCAGHASEYLQKCL [Phage-881] | 0.43 | 0.06
YCDGHIPQYVEKCL [Phage-788] | 0.94 | 0.08
YCEGHSVEYILKCL [Phage-757] | 1.04 | 0.06
YCEGHSSAYMRKCL [Phage-758] | 1.04 | 0.06
YCSGHSWAYIGKCL [Phage-775] | 0.98 | 0.07
YCDGHHAEYMWKCL [Phage-791] | 0.93 | 0.06
YCAGHAEIYMQKCL [Phage-789] | 0.93 | 0.05
YCVGHSPEYIWKCL [Phage-796] | 0.92 | 0.06
YCDGHELMYMEKCL [Phage-797] | 0.92 | 0.06
YCEGHTQAYLAKCL [Phage-792] | 0.93 | 0.1
YCAGHLDVYMSKCL [Phage-781] | 0.96 | 0.09
YCEGHDIRYMMKCL [Phage-785] | 0.95 | 0.08
YCAGHSAQYMWKCL [Phage-793] | 0.92 | 0.07
YCFGHFPEYMAKCL [Phage-773] | 0.98 | 0.07
YCDGHEERYMAKCL [Phage-786] | 0.94 | 0.06
YCQGHFPQYMAKCL [Phage-777] | 0.97 | 0.07
